Measurements: patent publication US20100310646A1 (AARHUS UNIVERSITET, published 2010)

Columns and labels:
[1] = target: T1, PA 1-599 (fragment of human PAPP-A, residues 1-599) (human, UniProt Q13219 82-679); experiment: binding of PAC5 to fragments of human PAPP-A
T1 sequence: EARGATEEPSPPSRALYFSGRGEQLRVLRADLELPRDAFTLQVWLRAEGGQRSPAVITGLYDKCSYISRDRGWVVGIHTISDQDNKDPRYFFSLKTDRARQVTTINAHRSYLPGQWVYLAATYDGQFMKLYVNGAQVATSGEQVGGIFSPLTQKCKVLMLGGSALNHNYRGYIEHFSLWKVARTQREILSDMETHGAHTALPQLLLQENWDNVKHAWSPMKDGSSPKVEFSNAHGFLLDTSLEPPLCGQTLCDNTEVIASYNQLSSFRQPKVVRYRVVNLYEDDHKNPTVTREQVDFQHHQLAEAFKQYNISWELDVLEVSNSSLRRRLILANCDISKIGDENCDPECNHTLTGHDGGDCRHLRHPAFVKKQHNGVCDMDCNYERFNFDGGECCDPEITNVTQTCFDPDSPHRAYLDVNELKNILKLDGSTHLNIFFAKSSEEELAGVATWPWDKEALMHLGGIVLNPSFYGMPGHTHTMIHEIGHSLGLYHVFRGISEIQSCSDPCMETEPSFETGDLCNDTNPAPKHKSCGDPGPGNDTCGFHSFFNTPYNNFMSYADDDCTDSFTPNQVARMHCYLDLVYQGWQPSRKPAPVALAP

[2] = target: T2, PA 1-950 (fragment of human PAPP-A, residues 1-950) (human, UniProt Q13219 82-1030); experiment: binding of PAC5 to fragments of human PAPP-A
T2 sequence: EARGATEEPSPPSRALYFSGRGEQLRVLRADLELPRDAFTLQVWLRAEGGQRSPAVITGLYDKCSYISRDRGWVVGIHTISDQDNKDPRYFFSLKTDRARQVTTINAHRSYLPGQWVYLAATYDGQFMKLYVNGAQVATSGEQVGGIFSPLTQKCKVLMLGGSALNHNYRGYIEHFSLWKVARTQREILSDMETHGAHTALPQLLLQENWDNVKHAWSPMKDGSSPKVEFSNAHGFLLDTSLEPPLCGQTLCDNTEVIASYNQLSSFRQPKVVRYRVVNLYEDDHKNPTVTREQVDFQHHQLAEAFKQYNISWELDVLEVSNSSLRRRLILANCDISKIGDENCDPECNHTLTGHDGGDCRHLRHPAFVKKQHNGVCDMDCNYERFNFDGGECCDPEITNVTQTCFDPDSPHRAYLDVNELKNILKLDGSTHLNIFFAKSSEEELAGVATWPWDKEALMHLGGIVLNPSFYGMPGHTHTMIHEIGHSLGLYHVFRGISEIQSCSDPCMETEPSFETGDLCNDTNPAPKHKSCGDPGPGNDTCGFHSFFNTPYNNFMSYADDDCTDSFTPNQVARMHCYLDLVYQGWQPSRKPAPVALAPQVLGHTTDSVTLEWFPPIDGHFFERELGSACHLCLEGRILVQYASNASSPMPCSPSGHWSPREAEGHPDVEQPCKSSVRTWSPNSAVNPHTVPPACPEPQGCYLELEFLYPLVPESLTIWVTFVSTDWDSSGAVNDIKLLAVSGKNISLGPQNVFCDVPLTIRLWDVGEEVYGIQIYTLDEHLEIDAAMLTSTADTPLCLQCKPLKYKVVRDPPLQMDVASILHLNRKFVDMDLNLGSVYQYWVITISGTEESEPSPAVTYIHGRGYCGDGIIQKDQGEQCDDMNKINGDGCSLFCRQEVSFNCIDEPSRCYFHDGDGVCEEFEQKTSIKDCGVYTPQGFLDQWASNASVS

[3] = target: T3, PA 937-1547 (fragment of human PAPP-A, residues 937-1547) (human, UniProt Q13219 1017-1627); experiment: binding of PAC5 to fragments of human PAPP-A
T3 sequence: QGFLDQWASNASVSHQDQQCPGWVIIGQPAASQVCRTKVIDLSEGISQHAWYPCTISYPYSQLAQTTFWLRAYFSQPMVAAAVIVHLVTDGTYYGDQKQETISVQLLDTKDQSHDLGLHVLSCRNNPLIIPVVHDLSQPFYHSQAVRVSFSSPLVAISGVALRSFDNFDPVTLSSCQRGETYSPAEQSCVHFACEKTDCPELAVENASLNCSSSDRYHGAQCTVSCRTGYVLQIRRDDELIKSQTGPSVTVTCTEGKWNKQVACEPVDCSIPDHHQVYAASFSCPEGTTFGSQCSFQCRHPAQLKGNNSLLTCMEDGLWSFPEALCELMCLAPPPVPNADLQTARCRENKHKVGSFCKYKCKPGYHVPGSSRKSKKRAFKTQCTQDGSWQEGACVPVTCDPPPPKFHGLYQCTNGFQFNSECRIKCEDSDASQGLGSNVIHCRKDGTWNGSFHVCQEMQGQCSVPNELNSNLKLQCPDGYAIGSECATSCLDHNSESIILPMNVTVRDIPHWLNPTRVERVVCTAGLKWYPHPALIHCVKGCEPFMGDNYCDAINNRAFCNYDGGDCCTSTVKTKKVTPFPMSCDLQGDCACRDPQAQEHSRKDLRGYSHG

[4] = target: T4, human pregnancy-associated plasma protein-A (PAPP-A) (human, UniProt Q13219 82-1627); experiment: ELISA
T4 construct: Recombinant, from 293T cells; also called human PAPP-A; full-length PAPP-A

human PAPP-A(D1499A) = human PAPP-A(D1499A) (human, UniProt Q13219 82-1627); experiment: ELISA, PAPP-A mutant captured with polyclonal PAPP-A antibodies
Experimental: (§1) A, PAC1 binding to human PAPP-A/PAPP-A2 chimeras or truncated human PAPP-A variants analyzed by ELISA. Sequence derived from PAPP-A is shown by open bars, and absence of binding (−) or binding (+) is indicated. […] Samples with or without EDTA (10 mM) were injected (120 s) followed by dissociation (180 s) (solid lines). […] The absence of binding (−) or binding (+) is indicated. PAC5, which was used as a positive control, binds to an epitope of PAPP-A located N-terminal to CCP1.
(§2) Determination of antibody specificity and mapping of antibody binding—Mapping of antibody binding was carried out by ELISA using PAPP-A/PAPP-A2 chimeric proteins, and mutated variants of PAPP-A. The proteins were immobilized with polyclonal PAPP-A antibodies, and binding of phage antibodies were analyzed as detailed above.

human PAPP-A(D1484A) = human PAPP-A(D1484A) (human, UniProt Q13219 82-1627); experiment: as above
Experimental: as §1, §2

human PAPP-A(D1502A) = human PAPP-A(D1502A) (human, UniProt Q13219 82-1627); experiment: as above
Experimental: as §1, §2

Measured: binding result

B1: PAC5 (PAPP-A non-exosite antibody, scFv) (scFv)
scFv: EVQLLESGGGLVQPGGSLRLSCAASGFTFSSYAMSWVRQAPGKGLEWVSAISPAGVMTQYADSVKGRFTISRDNSKNTLYLQMNSLRAEDTAVYYCAKQQGGFDYWGQGTLVTVSSGGGGSGGGGSGGGGSTDIQMTQSPSSLSASVGDRVTITCRASQSISSYLNWYQQKPGKAPKLLIYRASALQSGVPSRFSGSGSGTDFTLTISSLQPEDFATYYCQQPIARPPTFGQGTKVEIKRAAAHHHHHHGAAEQKLISEEDLNGAA
notes: Obtained by screening on full-length human PAPP-A and used as a control antibody in the scFv format; also called clone PAC5
no binding: [1] | [3]
binds: [2] | [4] | human PAPP-A(D1499A) | human PAPP-A(D1484A) | human PAPP-A(D1502A)
